Test results: patent US20220281948A1 (published 2022)

Assays:
Assay in all cases: multimer staining
[1] = molecular target: T1, MAGE-A2 peptide on HLA-DPA1*01:03 / HLA-DPB1*04:01 (human)
T1 peptide: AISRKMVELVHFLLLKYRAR

[2] = molecular target: T2, HSD17B12 peptide on HLA-DPA1*01:03 / HLA-DPB1*04:01 (human)
T2 peptide: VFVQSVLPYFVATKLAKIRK

[3] = molecular target: T3, CCND1 peptide on HLA-DPA1*01:03 / HLA-DPB1*04:01 (human)
T3 peptide: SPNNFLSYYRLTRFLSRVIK

[4] = molecular target: T4, MUC5AC peptide on HLA-DPA1*01:03 / HLA-DPB1*04:01 (human)
T4 peptide: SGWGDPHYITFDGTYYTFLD

[5] = molecular target: T5, LGSN peptide on HLA-DPA1*01:03 / HLA-DPB1*04:01 (human)
T5 peptide: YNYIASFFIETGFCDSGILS

B1: 03-MAGE-A2108-127 (TCR)
alpha TRAV36/DV7*04 TRAJ40*01 CDR3: CAVEVNSGTYKYIF
beta TRBV2*01 TRBJ1-1*01 CDR3: CASRRDLAAFF
- binding result [1]: recognises

B2: 06-MAGE-A2108-127 (TCR)
alpha TRAV19*01 TRAJ40*01 CDR3: CALSVGTYKYIF
beta TRBV7-9*01 TRBJ2-5*01 CDR3: CASSPGTGGRETQYF
- binding result [1]: recognises

B3: 05-HSD17B12225-244 (TCR)
alpha TRAV22*01 TRAJ18*01 CDR3: CAVAPYDRGSTLGRLYF
beta TRBV19*01 TRBJ2-5*01 CDR3: CASSTGQGLETQYF
- binding result [2]: recognises

B4: 03-CCND1219-238 (TCR)
alpha TRAV2*01 TRAJ21*01 CDR3: CAVCTLYNFNKFYF
beta TRBV6-5*01 TRBJ2-1*01 CDR3: CASLTDNNEQFF
- binding result [3]: recognises

B5: 05-MUC5AC4922-4941 (TCR)
Valpha: QTVTQSQPEMSVQEAETVTLSCTYDTSESNYYLFWYKQPPSRQMILVIRQEAYKQQNATENRFSVNFQKAAKSFSLKISDSQLGDTAMYFCAFMKRAETSGSRLTFGEGTQLTVNP
beta TRBV6-2*01 TRBJ2-5*01 CDR3: CASSYWPTRETQYF
- binding result [4]: recognises

B6: 05-LGSN296-315 (TCR)
alpha TRAV9-2*03 TRAJ32*01 CDR3: CALSDLSYGGATNKLIF
beta TRBV27*01 TRBJ1-5*01 CDR3: CASSKGQGLGNQPQHF
- binding result [5]: recognises
